This note sets out measurements from paper doi:10.1101/2024.09.12.612615.

The data set has as its target Asp64 (UniProt position 64, EGCPTDSIKVA). The data set is described as follows: kinetics. The conditions noted are these: 28 °C; reduced [4Fe-4S] cluster undergoing air oxidation.

Turning to “[4Fe-4S] ferredoxin (BtFd) (Bacillus thermoproteolyticus)”, the pKa result is listed as “between a pH of 6.0 to 7.0”.
